The labels stand for the following.
B1: Dynamin-1 (Homo sapiens), Q05193-5 (parent)
chain: MGNRGMEDLIPLVNRLQDAFSAIGQNADLDLPQIAVVGGQSAGKSSVLENFVGRDFLPRGSGIVTRRPLVLQLVNATTEYAEFLHCKGKKFTDFEEVRLEIEAETDRVTGTNKGISPVPINLRVYSPHVLNLTLVDLPGMTKVPVGDQPPDIEFQIRDMLMQFVTKENCLILAVSPANSDLANSDALKVAKEVDPQGQRTIGVITKLDLMDEGTDARDVLENKLLPLRRGYIGVVNRSQKDIDGKKDITAALAAERKFFLSHPSYRHLADRMGTPYLQKVLNQQLTNHIRDTLPGLRNKLQSQLLSIEKEVEEYKNFRPDDPARKTKALLQMVQQFAVDFEKRIEGSGDQIDTYELSGGARINRIFHERFPFELVKMEFDEKELRREISYAIKNIHGIRTGLFTPDLAFEATVKKQVQKLKEPSIKCVDMVVSELTATIRKCSEKLQQYPRLREEMERIVTTHIREREGRTKEQVMLLIDIELAYMNTNHEDFIGFANAQQRSNQMNKKKTSGNQDEILVIRKGWLTINNIGIMKGGSKEYWFVLTAENLSWYKDDEEKEKKYMLSVDNLKLRDVEKGFMSSKHIFALFNTEQRNVYKDYRQLELACETQEEVDSWKASFLRAGVYPERVGDKEKASETEENGSDSFMHSMDPQLERQVETIRNLVDSYMAIVNKTVRDLMPKTIMHLMINNTKEFIFSELLANLYSCGDQNTLMEESAEQAQRRDEMLRMYHALKEALSIIGDINTTTVSTPMPPPVDDSWLQVQSVPAGRRSPTSSPTPQRRAPAVPPARPGSRGPAPGPPPAGSALGGAPPVPSRPGASPDPFGPPPQVPSRPNRAPPGVPRITISDP

In one assay the parent is B1. The following applies: with acts_rabit ACTA1, P68135.
In the case of K414A, the “effect of a mutation on the interaction” value is reported as “decreasing interaction”.

Take K426A: the “effect of a mutation on the interaction” value is on record as “decreasing interaction”. On the same count and under the same terms, under K415A stands “decreasing interaction”.

In the case of K421A, the “effect of a mutation on the interaction” value is on record as “decreasing interaction”.

Regarding K419A, the “effect of a mutation on the interaction” value was “decreasing interaction”.

A further assay covers variants of B1. The following applies: with acts_rabit ACTA1, P68135. The source holds these as a separate data set.
For K414E, the “effect of a mutation on the interaction” value is given as “decreasing interaction”. As to K426E, the “effect of a mutation on the interaction” value is reported as “decreasing interaction”. Same read-out and setting: for K415E the value was “decreasing interaction”; for K421E, “decreasing interaction”. On the same count and under the same terms, under K419E stands “decreasing interaction”.

Variants of B1 are the subject of another assay. The conditions noted are these: with acts_rabit ACTA1, P68135. This is another data set of the same source.
As for E434K, the “effect of a mutation on the interaction” value was “increasing interaction”.

Values taken from IntAct's records for PubMed 20935625.
